B1: Sharpin (Homo sapiens), Q9H0F6 (parent)
chain: MAPPAGGAAAAASDLGSAAVLLAVHAAVRPLGAGPDAEAQLRRLQLSADPERPGRFRLELLGAGPGAVNLEWPLESVSYTIRGPTQHELQPPPGGPGTLSLHFLNPQEAQRWAVLVRGATVEGQNGSKSNSPPALGPEACPVSLPSPPEASTLKGPPPEADLPRSPGNLTEREELAGSLARAIAGGDEKGAAQVAAVLAQHRVALSVQLQEACFPPGPIRLQVTLEDAASAASAASSAHVALQVHPHCTVAALQEQVFSELGFPPAVQRWVIGRCLCVPERSLASYGVRQDGDPAFLYLLSAPREAPATGPSPQHPQKMDGELGRLFPPSLGLPPGPQPAASSLPSPLQPSWSCPSCTFINAPDRPGCEMCSTQRPCTWDPLAAAST

Variants of: B1
Conditions: with rnf31_human RNF31, Q96EP0
rnf31_human RNF31, Q96EP0, sequence (Q96EP0 whole entry): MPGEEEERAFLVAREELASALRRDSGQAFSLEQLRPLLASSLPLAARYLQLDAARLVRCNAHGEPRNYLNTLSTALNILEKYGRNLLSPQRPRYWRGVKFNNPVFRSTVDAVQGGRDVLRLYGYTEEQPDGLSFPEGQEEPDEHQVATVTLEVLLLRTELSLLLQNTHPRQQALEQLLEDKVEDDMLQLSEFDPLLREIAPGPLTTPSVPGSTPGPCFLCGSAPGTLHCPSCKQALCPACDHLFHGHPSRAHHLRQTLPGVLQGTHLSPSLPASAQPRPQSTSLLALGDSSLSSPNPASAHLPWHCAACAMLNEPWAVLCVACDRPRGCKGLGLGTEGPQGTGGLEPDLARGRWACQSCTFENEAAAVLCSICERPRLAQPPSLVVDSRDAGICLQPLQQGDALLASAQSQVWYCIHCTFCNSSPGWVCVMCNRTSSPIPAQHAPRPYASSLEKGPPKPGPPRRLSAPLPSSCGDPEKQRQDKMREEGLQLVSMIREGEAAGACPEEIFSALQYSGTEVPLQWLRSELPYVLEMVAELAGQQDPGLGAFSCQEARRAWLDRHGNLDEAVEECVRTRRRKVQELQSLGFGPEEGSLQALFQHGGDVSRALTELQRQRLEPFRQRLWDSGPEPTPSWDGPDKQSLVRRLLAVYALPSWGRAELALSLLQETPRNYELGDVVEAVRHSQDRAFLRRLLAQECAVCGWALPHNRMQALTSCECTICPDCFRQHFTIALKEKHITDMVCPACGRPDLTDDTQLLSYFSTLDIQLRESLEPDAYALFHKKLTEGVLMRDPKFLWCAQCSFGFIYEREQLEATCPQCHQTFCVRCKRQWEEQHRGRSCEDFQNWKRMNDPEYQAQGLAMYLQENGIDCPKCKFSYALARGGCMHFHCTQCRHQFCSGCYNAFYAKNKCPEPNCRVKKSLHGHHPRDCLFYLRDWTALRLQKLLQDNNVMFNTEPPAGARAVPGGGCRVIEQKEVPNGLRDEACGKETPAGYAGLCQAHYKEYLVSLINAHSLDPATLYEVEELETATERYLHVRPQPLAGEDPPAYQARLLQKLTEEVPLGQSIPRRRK

Row | Variant | effect of a mutation on the interaction
1 | I272A | disrupting interaction

Reference: IntAct's records for PubMed 21455181
